Key:
[1] = molecular target: T1, extracellular domain of human ROR1 (human, UniProt Q01973 30-406); experiment: BLI, IgG1 on biosensor, soluble ROR ectodomain
T1 construct: bought protein; biotinylated in the bivalent assay format; also called Acro Cat. No. RO1-H522y
From the text: (§1) To measure binding affinity in ROR binder discovery campaigns, the VL and VH domains identified in the phage screen described above were formatted into a bivalent monospecific native human full-length IgG1 architecture and immobilized to a biosensor on an Octet (Pall ForteBio) biolayer interferometer. Soluble ROR antigens, including the extracellular domains of ROR1 (Acro Cat. No. RO1-H522γ) and ROR2 (Acro Cat. No. R02-H52E5), as well as the individual ROR1 Frizzled (Acro Cat. No. RO1-H5222), Ig-like (Acro Cat. No. RO1-H5221), and Kringle (Acro Cat. No. RO1-H5223) domains, were then added to the system and binding measured.
(§2) ROR binding candidates, formatted in the bivalent monospecific native human full-length IgG1 architecture, were further characterized for binding to ROR1 and/or ROR2. […] ROR binding candidates were also characterized for their binding to specific ROR1 domains.

[2] = molecular target: T2, extracellular domain of human ROR2 (human, UniProt Q01974 34-403); experiment: BLI, IgG1 on biosensor, soluble ROR ectodomain
T2 construct: bought protein; biotinylated in the bivalent assay format; also called Acro Cat. No. RO2-H52E5
T2 sequence (Q01974 34-403 limits assumed): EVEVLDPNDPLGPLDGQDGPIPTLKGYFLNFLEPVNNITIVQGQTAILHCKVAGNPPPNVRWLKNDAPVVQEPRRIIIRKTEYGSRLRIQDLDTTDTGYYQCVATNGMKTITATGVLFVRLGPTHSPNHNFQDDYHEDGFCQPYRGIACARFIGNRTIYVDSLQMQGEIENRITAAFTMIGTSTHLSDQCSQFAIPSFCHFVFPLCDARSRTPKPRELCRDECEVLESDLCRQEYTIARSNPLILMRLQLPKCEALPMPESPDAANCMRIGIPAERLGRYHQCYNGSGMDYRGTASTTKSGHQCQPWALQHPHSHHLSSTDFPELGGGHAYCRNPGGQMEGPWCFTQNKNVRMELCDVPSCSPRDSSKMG
From the text: as §1, §2

ROR1 Ig-like domain = molecular target: T3, ROR1 Ig-like domain (human, UniProt Q01973 42-147); experiment: BLI, IgG1 on biosensor, soluble ROR1 domain
T3 construct: also called Acro Cat. No. RO1-H5221
T3 sequence (Q01973 42-147): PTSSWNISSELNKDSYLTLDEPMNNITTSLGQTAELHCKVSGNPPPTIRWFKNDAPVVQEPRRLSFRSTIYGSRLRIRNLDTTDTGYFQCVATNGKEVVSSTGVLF
From the text: as §1, §2

T1 sequence (Q01973 30-406 limits assumed): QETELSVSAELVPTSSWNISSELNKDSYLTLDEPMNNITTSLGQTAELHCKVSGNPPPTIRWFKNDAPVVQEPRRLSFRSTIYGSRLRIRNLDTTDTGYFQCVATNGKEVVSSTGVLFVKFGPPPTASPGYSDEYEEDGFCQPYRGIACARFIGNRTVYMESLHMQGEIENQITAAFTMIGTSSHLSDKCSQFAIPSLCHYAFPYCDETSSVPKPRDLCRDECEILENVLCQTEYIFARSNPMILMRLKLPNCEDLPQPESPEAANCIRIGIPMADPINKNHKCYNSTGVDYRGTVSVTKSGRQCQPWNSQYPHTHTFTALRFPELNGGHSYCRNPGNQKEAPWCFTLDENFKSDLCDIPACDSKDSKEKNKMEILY

| binding result [1] | binding result [2] | binding result (ROR1 Ig-like domain) | Binder |
| --- | --- | --- | --- |
| binds | binds | binds | I2C-13 IgG1 (antibody, V domains shown, human IgG1) VH: EVQLVESGGGLVQPGGSLRLSCAASGFTFSSYGIHWVRQAPGKGLEWVAYIHSGIGYTIYADSVKGRFTISADTSKNTAYLQMNSLRAEDTAVYYCARTSSTSTSVMDYWGQGTLVTVSS VL: DIQMTQSPSSLSASVGDRVTITCRASQSVSSAVAWYQQKPGKAPKLLIYSASSLYSGVPSRFSGSRSGTDFTLTISSLQPEDFATYYCQQTYWSPGTFGQGTKVEIK |
| – | no binding | – | I2A-33 IgG1 (antibody, V domains shown, human IgG1) VH: EVQLVESGGGLVQPGGSLRLSCAASGFTFDDYYIHWVRQAPGKGLEWVAWIDSYGGYTSYADSVKGRFTISADTSKNTAYLQMNSLRAEDTAVYYCARSSYYYPGGFDYWGQGTLVTVSS VL: DIQMTQSPSSLSASVGDRVTITCRASQSVSSAVAWYQQKPGKAPKLLIYSASSLYSGVPSRFSGSRSGTDFTLTISSLQPEDFATYYCQQWDSTLYTFGQGTKVEIK |
| binds | binds | binds | I2C-14 IgG1 (antibody, V domains shown, human IgG1) VH: EVQLVESGGGLVQPGGSLRLSCAASGFTFESYDIHWVRQAPGKGLEWVAAIFSYGGYTTYADSVKGRFTISADTSKNTAYLQMNSLRAEDTAVYYCARGSYGDGRGMDYWGQGTLVTVSS VL: DIQMTQSPSSLSASVGDRVTITCRASQSVSSAVAWYQQKPGKAPKLLIYSASSLYSGVPSRFSGSRSGTDFTLTISSLQPEDFATYYCQQYYYWPGTFGQGTKVEIK |
| no binding | binds | – | I2C-7 IgG1 (antibody, V domains shown, human IgG1) VH: EVQLVESGGGLVQPGGSLRLSCAASGFTFDSYYIHWVRQAPGKGLEWVAWIDPYGLDTKYADSVKGRFTISADTSKNTAYLQMNSLRAEDTAVYYCAREPGDYGMDYWGQGTLVTVSS VL: DIQMTQSPSSLSASVGDRVTITCRASQSVSSAVAWYQQKPGKAPKLLIYSASSLYSGVPSRFSGSRSGTDFTLTISSLQPEDFATYYCQQAYGSLLTFGQGTKVEIK |
| no binding | binds | – | I2C-25 IgG1 (antibody, V domains shown, human IgG1) VH: EVQLVESGGGLVQPGGSLRLSCAASGFTFSDYYIHWVRQAPGKGLEWVAYIAPYGGFTYYADSVKGRFTISADTSKNTAYLQMNSLRAEDTAVYYCARDSYRRGYVSGFDYWGQGTLVTVSS VL: DIQMTQSPSSLSASVGDRVTITCRASQSVSSAVAWYQQKPGKAPKLLIYSASSLYSGVPSRFSGSRSGTDFTLTISSLQPEDFATYYCQQRYSSPSTFGQGTKVEIK |
| no binding | binds | – | I2C-19 IgG1 (antibody, V domains shown, human IgG1) VH: EVQLVESGGGLVQPGGSLRLSCAASGFTFTSYDIHWVRQAPGKGLEWVAWIDPGLSYTSYADSVKGRFTISADTSKNTAYLQMNSLRAEDTAVYYCARASIGGGVPVMDYWGQGTLVTVSS VL: DIQMTQSPSSLSASVGDRVTITCRASQSVSSAVAWYQQKPGKAPKLLIYSASSLYSGVPSRFSGSRSGTDFTLTISSLQPEDFATYYCQQYVTGPYTFGQGTKVEIK |
| binds | binds | – | I2C-22 IgG1 (antibody, V domains shown, human IgG1) VH: EVQLVESGGGLVQPGGSLRLSCAASGFTFSSYSIHWVRQAPGKGLEWVAAIYPYWGTTEYADSVKGRFTISADTSKNTAYLQMNSLRAEDTAVYYCARPSGVTYGYALDYWGQGTLVTVSS VL: DIQMTQSPSSLSASVGDRVTITCRASQSVSSAVAWYQQKPGKAPKLLIYSASSLYSGVPSRFSGSRSGTDFTLTISSLQPEDFATYYCQQYYYSPWTFGQGTKVEIK |
| no binding | binds | – | I2C-3 IgG1 (antibody, V domains shown, human IgG1) VH: EVQLVESGGGLVQPGGSLRLSCAASGFTFSHYWIHWVRQAPGKGLEWVALIAPGGDYTSYADSVKGRFTISADTSKNTAYLQMNSLRAEDTAVYYCARSGLPGFDYWGQGTLVTVSS VL: DIQMTQSPSSLSASVGDRVTITCRASQSVSSAVAWYQQKPGKAPKLLIYSASSLYSGVPSRFSGSRSGTDFTLTISSLQPEDFATYYCQQYKSSPLTFGQGTKVEIK |
| – | – | binds | I2A-35 IgG1 (antibody, V domains shown, human IgG1) VH: EVQLVESGGGLVQPGGSLRLSCAASGFTFSAYDIHWVRQAPGKGLEWVAWIDPYGGDTDYADSVKGRFTISADTSKNTAYLQMNSLRAEDTAVYYCARSPSYMQYGGLDYWGQGTLVTVSS VL: DIQMTQSPSSLSASVGDRVTITCRASQSVSSAVAWYQQKPGKAPKLLIYSASSLYSGVPSRFSGSRSGTDFTLTISSLQPEDFATYYCQQYYSSLLTFGQGTKVEIK |
| no binding | binds | – | I2C-21 IgG1 (antibody, V domains shown, human IgG1) VH: EVQLVESGGGLVQPGGSLRLSCAASGFTFSSYYIHWVRQAPGKGLEWVAWIDPYISYTYYADSVKGRFTISADTSKNTAYLQMNSLRAEDTAVYYCARDSELVSGYAMDYWGQGTLVTVSS VL: DIQMTQSPSSLSASVGDRVTITCRASQSVSSAVAWYQQKPGKAPKLLIYSASSLYSGVPSRFSGSRSGTDFTLTISSLQPEDFATYYCQQGDSSLVTFGQGTKVEIK |
| binds | binds | – | I2C-18 IgG1 (antibody, V domains shown, human IgG1) VH: EVQLVESGGGLVQPGGSLRLSCAASGFTFAGYPIHWVRQAPGKGLEWVAAIDPDGGYTYYADSVKGRFTISADTSKNTAYLQMNSLRAEDTAVYYCARHTGFHRYRGMDYWGQGTLVTVSS VL: DIQMTQSPSSLSASVGDRVTITCRASQSVSSAVAWYQQKPGKAPKLLIYSASSLYSGVPSRFSGSRSGTDFTLTISSLQPEDFATYYCQQYYWFPPTFGQGTKVEIK |
| – | no binding | – | I2A-37 IgG1 (antibody, V domains shown, human IgG1) VH: EVQLVESGGGLVQPGGSLRLSCAASGFTFSWYGIHWVRQAPGKGLEWVAYIDSYTSSTYYADSVKGRFTISADTSKNTAYLQMNSLRAEDTAVYYCARSHFGHYDYVMDYWGQGTLVTVSS VL: DIQMTQSPSSLSASVGDRVTITCRASQSVSSAVAWYQQKPGKAPKLLIYSASSLYSGVPSRFSGSRSGTDFTLTISSLQPEDFATYYCQQAYDQLYTFGQGTKVEIK |
| – | no binding | – | I2A-8 IgG1 (antibody, V domains shown, human IgG1) VH: EVQLVESGGGLVQPGGSLRLSCAASGFTFYGYYIHWVRQAPGKGLEWVAGIRPGGTYTYYADSVKGRFTISADTSKNTAYLQMNSLRAEDTAVYYCARYRYPAFDYWGQGTLVTVSS VL: DIQMTQSPSSLSASVGDRVTITCRASQSVSSAVAWYQQKPGKAPKLLIYSASSLYSGVPSRFSGSRSGTDFTLTISSLQPEDFATYYCQQRRQHLWTFGQGTKVEIK |
| – | no binding | – | I2A-12 IgG1 (antibody, V domains shown, human IgG1) VH: EVQLVESGGGLVQPGGSLRLSCAASGFTFTTYYIHWVRQAPGKGLEWVAYISPEDGYTSYADSVKGRFTISADTSKNTAYLQMNSLRAEDTAVYYCARAYYSAVMDYWGQGTLVTVSS VL: DIQMTQSPSSLSASVGDRVTITCRASQSVSSAVAWYQQKPGKAPKLLIYSASSLYSGVPSRFSGSRSGTDFTLTISSLQPEDFATYYCQQSWSPATTFGQGTKVEIK |
| no binding | binds | – | I2C-5 IgG1 (antibody, V domains shown, human IgG1) VH: EVQLVESGGGLVQPGGSLRLSCAASGFTFSSYDIHWVRQAPGKGLEWVAWIYPYWGYTIYADSVKGRFTISADTSKNTAYLQMNSLRAEDTAVYYCARGTYAPALDYWGQGTLVTVSS VL: DIQMTQSPSSLSASVGDRVTITCRASQSVSSAVAWYQQKPGKAPKLLIYSASSLYSGVPSRFSGSRSGTDFTLTISSLQPEDFATYYCQQFYSYLSTFGQGTKVEIK |
| no binding | binds | – | I2C-26 IgG1 (antibody, V domains shown, human IgG1) VH: EVQLVESGGGLVQPGGSLRLSCAASGFTFSDYYIHWVRQAPGKGLEWVADIDSYGGFTYYADSVKGRFTISADTSKNTAYLQMNSLRAEDTAVYYCARDPHFLDDVYVLDYWGQGTLVTVSS VL: DIQMTQSPSSLSASVGDRVTITCRASQSVSSAVAWYQQKPGKAPKLLIYSASSLYSGVPSRFSGSRSGTDFTLTISSLQPEDFATYYCQQYSWGLWTFGQGTKVEIK |
| – | no binding | – | I2A-30 IgG1 (antibody, V domains shown, human IgG1) VH: EVQLVESGGGLVQPGGSLRLSCAASGFTFDSYFIHWVRQAPGKGLEWVAYIYSWGSYTHYADSVKGRFTISADTSKNTAYLQMNSLRAEDTAVYYCARGHRRYFALDYWGQGTLVTVSS VL: DIQMTQSPSSLSASVGDRVTITCRASQSVSSAVAWYQQKPGKAPKLLIYSASSLYSGVPSRFSGSRSGTDFTLTISSLQPEDFATYYCQQVYFTPGTFGQGTKVEIK |
| binds | binds | – | I2A-24 IgG1 (antibody, V domains shown, human IgG1) VH: EVQLVESGGGLVQPGGSLRLSCAASGFTFSTYGIHWVRQAPGKGLEWVAAIYPGTSYTGYADSVKGRFTISADTSKNTAYLQMNSLRAEDTAVYYCAREYFMGMDYWGQGTLVTVSS VL: DIQMTQSPSSLSASVGDRVTITCRASQSVSSAVAWYQQKPGKAPKLLIYSASSLYSGVPSRFSGSRSGTDFTLTISSLQPEDFATYYCQQYYYWPGTFGQGTKVEIK |

From patent US20240392002A1 (EXELIXIS, published 2024)
